Measurements as given in patent US20220119513A1 (ZOETIS SERVICES, published 2022).
Read-outs that look alike come from different tables or passages of the source. Values belong to the binder of their own block, whether it stands above or below them.

What was measured:
TGFβ1 (R&D Systems) [1] = biological target: T1, TGFβ1 (R&D Systems); experiment: SPR full titration
T1 construct: also called TGFB1

TGFβ3 (R&D Systems) [2] = biological target: T2, TGFβ3 (R&D Systems) (Homo sapiens (Human), UniProt P10600 301-412, Active TGFβ3 is a disulfide-linked homodimer of this chain; one copy is given.); experiment: SPR full titration
T2 construct: also called TGFB3
T2 sequence: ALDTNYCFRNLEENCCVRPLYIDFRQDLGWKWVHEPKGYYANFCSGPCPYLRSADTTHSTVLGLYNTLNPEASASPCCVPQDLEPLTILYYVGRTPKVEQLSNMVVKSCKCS

TGFβ1 (R&D Systems) [3] = biological target: T1, TGFβ1 (R&D Systems); experiment: cell-based or functional assay
TGFβ1 (R&D Systems) [4] = biological target: T1, TGFβ1 (R&D Systems); experiment: cell-based or functional assay; remark: listed apart in the source
TGFβ3 (R&D Systems) [5] = biological target: T2, TGFβ3 (R&D Systems); experiment: cell-based or functional assay
TGFβ1 (R&D Systems) [6] = biological target: T1, TGFβ1 (R&D Systems); experiment: cell-based or functional assay; remark: listed apart in the source
canine TGFβ2 = biological target: T3, canine TGFβ2 (canine, UniProt A0A8I3PZZ6 331-442); experiment: SPR, TGFβ on chip
T3 sequence: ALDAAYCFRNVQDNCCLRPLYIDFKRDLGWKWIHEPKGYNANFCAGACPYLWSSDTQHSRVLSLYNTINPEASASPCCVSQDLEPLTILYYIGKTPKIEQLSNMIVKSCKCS
Description: (§1) To avoid affinity differences associated with differential surface preparation that can occur when immobilizing antibodies to surfaces, TGFβ1, TGFβ2, and TGFβ3 (R&D Systems) were directly conjugated to the individual surface. Immobilization was obtained by amine coupling […] using N-hydroxysuccinimide (NHS)/1-Ethyl-3-(3-dimethylaminopropyl) carbodiimide (EDC) chemistry. Chips were quenched with ethanolamine and the affinity with which all candidate mAbs bound to the immobilized TGFβ was evaluated. All curves were fit to a 1:1 model. Affinities <10⁻¹¹ are below the lower limit of quantitation of detection for the instrument.

canine TGFβ3 = biological target: T4, canine TGFβ3 (canine, UniProt A0A8I3S1P1 346-457); experiment: SPR, TGFβ on chip
T4 sequence: T2 sequence
Description: as §1

canine TGFβ1 = canine TGFβ1 (canine, UniProt P54831 279-390, limits assumed); experiment: SPR, TGFβ on chip
Description: as §1

TGFβ1 (R&D Systems) [7] = biological target: T1, TGFβ1 (R&D Systems); experiment: SPR, TGFβ on chip
Description: as §1

TGFβ3 (R&D Systems) [8] = biological target: T2, TGFβ3 (R&D Systems); experiment: SPR, TGFβ on chip
Description: as §1

TGFβ2 (R&D Systems) [9] = biological target: T5, TGFβ2 (R&D Systems); experiment: SPR, TGFβ on chip
T5 construct: also called TGFB2
T5 sequence (P61812 303-414, species assumed, looked up): T3 sequence
Description: as §1

human TGFβ1 (PeproTech) = human TGFβ1 (PeproTech) (human, UniProt P01137 279-390); experiment: HDX-MS epitope mapping, TGFβ1 with and without mAb
Description: Hydrogen Deuterium Exchange (HDX) experiments were used to determine the epitopes on TGFβ1 to which each antibody series binds. This method establishes the peptide level epitope on TGFβ1 targeted by each mAb by HDX mass spectrometry. For each mAb analysis, TGFβ1 is incubated in deuterium oxide in the presence and absence of mAb, is digested, and fragments are then analyzed and compared for hydrogen/deuterium exchange via mass spectrometry.
More specifically, the method was carried out as follows: One milligram of TGFβ1 was reconstituted in 500 μL control buffer (50 mM phosphate, 100 mM sodium chloride at pH 7.4). […] The mass spectra were recorded in MS only mode.
For pepsin digestion, 10 μg of human TGFβ1 in 80 μL control buffer (50 mM phosphate, 100 mM sodium chloride at pH 7.4) was denatured by adding 160 μL of 8 M urea, 0.85 M TCEP buffer (final pH is 4.0) and incubating the mixture for 3 min at 6° C. Then, the mixture was subjected to pepsin digestion using an-house packed pepsin column (2.1×30 mm) at 11° C. and the resultant peptides was analyzed using a UPLC-MS system comprised of a Waters Acquity UPLC coupled to a Q Exactive™ Hybrid Quadrupole-Orbitrap Mass Spectrometer (Thermo). […]

TGFβ1 (R&D Systems) [10] = biological target: T1, TGFβ1 (R&D Systems); experiment: SPR
TGFβ1 (R&D Systems) [11] = biological target: T1, TGFβ1 (R&D Systems); experiment: cell-based or functional assay; remark: listed apart in the source
TGFβ3 (R&D Systems) [12] = biological target: T2, TGFβ3 (R&D Systems); experiment: cell-based or functional assay; remark: listed apart in the source
TGFβ2 (R&D Systems) [13] = biological target: T5, TGFβ2 (R&D Systems); experiment: cell-based or functional assay
TGFβ1 (R&D Systems) [14] = biological target: T1, TGFβ1 (R&D Systems); experiment: SPR full titration; remark: listed apart in the source
TGFβ3 (R&D Systems) [15] = biological target: T2, TGFβ3 (R&D Systems); experiment: SPR full titration; remark: listed apart in the source
TGFβ2 (R&D Systems) [16] = biological target: T5, TGFβ2 (R&D Systems); experiment: SPR full titration

T1 sequence (P01137 279-390): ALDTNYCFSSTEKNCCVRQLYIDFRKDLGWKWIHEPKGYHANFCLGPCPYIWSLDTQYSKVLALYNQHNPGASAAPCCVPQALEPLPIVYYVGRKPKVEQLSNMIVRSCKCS
Chain of canine TGFβ1 (P54831 279-390 limits assumed): as the sequence (P01137 279-390) above
Chain of human TGFβ1 (PeproTech) (P01137 279-390 limits assumed): as the sequence (P01137 279-390) above

B1: chi SL501 (antibody)
heavy: EVQLVESGGGVVQPGRSLRLSCAASGFTFSSYGMHWVRQAPGKELEWVAVISYDGSIKYYADSVKGRFTISRDNSKNTLYLQMNSLRAEDTAVYYCARTGEYSGYDTDPQYSWGQGTTVTVSSASTTAPSVFPLAPSCGSTSGSTVALACLVSGYFPEPVTVSWNSGSLTSGVHTFPSVLQSSGLYSLSSMVTVPSSRWPSETFTCNVAHPASKTKVDKPVPKRENGRVPRPPDCPKCPAPEAAGAPSVFIFPPKPKDTLLIARTPEVTCVVVDLDPEDPEVQISWFVDGKQMQTAKTQPREEQFNGTYRVVSVLPIGHQDWLKGKQFTCKVNNKALPSPIERTISKARGQAHQPSVYVLPPSREELSKNTVSLTCLIKDFFPPDIDVEWQSNGQQEPESKYRTTPPQLDEDGSYFLYSKLSVDKSRWQRGDTFICAVMHEALHNHYTQESLSHSPGK
light: EIVLTQSPSSLSASVGDRVTITCRASQGIGDDLGWYQQKPGKAPILLIYGTSTLQSGVPSRFSGSGSGTDFTLTINSLQPEDFATYYCLQDSNYPLTFGGGTKRNDAQPAVYLFQPSPDQLHTGSASVVCLLNSFYPKDINVKWKVDGVIQDTGIQESVTEQDKDSTYSLSSTLTMSSTEYLSHELYSCEITHKSLPSTLIKSFQRSEC
notes: also called Chimera-SL501-VH/Chimera-SL501-VL
Kd (TGFβ1 (R&D Systems) [1]): 0.472 nM
binding result (TGFβ3 (R&D Systems) [2]): no binding

B5: felHclb 1-1YMN (antibody, V domains shown)
VH: QVLLVQSGAEVRTPGASVKIFCKASGYIFITYYMNWVRQSPAQGLEWMGSIFPASGSTSYAQKFQGRLTLTADTSTNTAYMELSSLRSADTAMYYCARGDGNYALDAMDYWGQGTSVTVSS
VL: EIQMTQSPSSLSASPGDRVTITCRASESVDSYGNSFMHWYQQKPGKVPKLLIYLASNLESGVPSRFSGSGSGTDFTLTISSLEPEDAATYYCQQNNEDPLTFGAGT
notes: also called felHclbH1-1YMN/felHclbK1-1; felHcLb-H1-1MN
Kd (TGFβ1 (R&D Systems) [10]): 263000 nM

B6: mHcLb (antibody, V domains shown)
VH: QVQLEESGPELVRPGASVKLSCKASGYIFITYWMNWVKQRPGQGLEWIGQIFPASGSTNYNEMFEGKATLTVDTSSSTAYMQLSSLTSEDSAVYYCARGDGNYALDAMDYWGQGT
VL: DIVLTQTPASLAVSLGQRATISCRASESVDSYGNSFMHWYQQKSGQPPKLLIYLASNLESGVPARFSGSGSRTDFTLTIDPVEADDAATYYCQQNNEDPLTFGAGTK
notes: murine antibody; also called 1D11; mHcLb (murine)
pSmad-3, IC50 (TGFβ1 (R&D Systems) [11]): 1.52 nM
pSmad-3, IC50 (TGFβ3 (R&D Systems) [12]): 1.11 nM
pSmad-3, IC50 (TGFβ2 (R&D Systems) [13]): 11 nM
Kd (TGFβ1 (R&D Systems) [14]): 5.05 nM
Kd (TGFβ3 (R&D Systems) [15]): 0.223 nM
Kd (TGFβ2 (R&D Systems) [16]): 0.586 nM

More lines, now with the values ahead:

Kd (TGFβ1 (R&D Systems) [1]): 0.0218 nM
binding result (TGFβ3 (R&D Systems) [2]): no binding
CMVIC pSmad-3, IC50 (TGFβ1 (R&D Systems) [3]): 4.91 nM
B2: Can-SL501_VH3/Can-SL501-VL1 (antibody, V domains shown)
VH: EVQLVESGGDLVKPGGSLRLSCVASGFTFSSYGMHWVRQAPGKGLQWVAVISYDGSIKYYADAVKGRFTISRDNAKNTLYLQMNSLRAEDTAVYYCARTGEYSGYDTDPQYSWGQGTTVTVSS
VL: EIVMTQSPASLSLSQEEKVTITCRASQGIGDDLGWYQQKPGQAPKLLIYGTSTLQSGVPSRFSGSGSGTDFSFTISSLEPEDVAVYYCLQDSNYPLTFGAGTK
notes: caninized IgG; constant regions not restated; also called ZTS-501

CMVIC pSmad-3, IC50 (TGFβ1 (R&D Systems) [4]): 0.88 nM
CMVIC pSmad-3, IC50 (TGFβ3 (R&D Systems) [5]): 136 nM
IC50 (read off the curve), inhibition of TGFβ1-induced SMAD3 signalling [panel TGFβ1] (TGFβ1 (R&D Systems) [6]): ~0.2 µg/mL
Kd (canine TGFβ2): 29.7 nM
Kd (canine TGFβ3): 4.78 nM
Kd (canine TGFβ1): 2.18 nM
B3: Can04H09 VH1/VL4 (antibody, V domains shown)
VH: EVQLVQSGAEVKKPGASVKVSCKTSGYTFISSWMNWVRQAPGAGLDWMGQIYPGDGDTNYNGKFKGRVTLTADTSTSTAYMELSSLRAGDIAVYYCARHYDGSTDYWGQGTLVTVSS
VL: EIVMTQSPASLSLSQGEKVTITCRASENIYSNLAWYQQRPGQAPKLLIYAATNLADGVPSRFSGSGSGTDFSLTISSLEPEDVAVYYCQHFWGTPYTFGQGTK

CMVIC pSmad-3, IC50 (TGFβ1 (R&D Systems) [4]): 4.66 nM
Kd (TGFβ1 (R&D Systems) [7]): 0.0443 nM
Kd (TGFβ3 (R&D Systems) [8]): 1.26 nM
Kd (TGFβ2 (R&D Systems) [9]): 7.13 nM
binding result (human TGFβ1 (PeproTech)): binds
B4: 04H09 (mouse) (antibody, V domains shown)
VH: QVQLQQSGAELVKPGASVKISCKASGYAFSSSWMNWVKQRPGKGLEWIGQIYPGDGDTNYNGKFKGKATLTADKSSSTAYMQLSSLTSEDSAVYFCARHYDGSTDYWGQGTTLTVSS
VL: DIQMTQSPASLSVSVGETVTITCRASENIYSNLAWYQQKQGKSPQLLVYAATNLADGVPSRFSGSGSGTQYSLKINSLQSEDFGSYYCQHFWGTPYTFGGGTKLEIK
notes: mouse IgG, kappa, purified from hybridoma; also called mouse 04H09 monoclonal antibody; 04H09 (murine)
